# T1: CbAgoM (delA2;D463R;Y473A;K477C;T491H;T494S;K520G;A542D;A612D;del738-749)
# T1 chain: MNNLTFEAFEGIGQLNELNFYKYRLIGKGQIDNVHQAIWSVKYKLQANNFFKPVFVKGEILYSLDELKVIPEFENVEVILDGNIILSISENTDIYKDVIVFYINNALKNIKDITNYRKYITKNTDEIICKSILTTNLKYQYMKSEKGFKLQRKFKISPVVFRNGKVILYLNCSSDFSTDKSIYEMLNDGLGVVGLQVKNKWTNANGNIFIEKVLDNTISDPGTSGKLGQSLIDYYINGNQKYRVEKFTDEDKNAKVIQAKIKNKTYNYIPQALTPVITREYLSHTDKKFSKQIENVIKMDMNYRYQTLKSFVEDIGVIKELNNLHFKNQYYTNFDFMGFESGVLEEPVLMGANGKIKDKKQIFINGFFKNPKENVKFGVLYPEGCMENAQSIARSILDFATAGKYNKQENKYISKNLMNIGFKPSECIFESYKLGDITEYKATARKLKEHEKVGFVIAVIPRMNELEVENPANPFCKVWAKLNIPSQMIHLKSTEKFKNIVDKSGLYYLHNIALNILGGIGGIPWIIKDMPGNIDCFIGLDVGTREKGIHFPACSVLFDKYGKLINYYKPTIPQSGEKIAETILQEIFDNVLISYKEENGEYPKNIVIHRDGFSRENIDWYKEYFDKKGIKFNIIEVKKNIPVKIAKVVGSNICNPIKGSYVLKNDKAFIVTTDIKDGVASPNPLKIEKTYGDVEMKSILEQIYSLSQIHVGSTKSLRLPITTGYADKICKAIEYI
# B1: gDNA 21 nt (ssDNA)
# DNA: TGAGGTAGTAGGTTGTATAGT
# modifications: 5'-phosphate
# Biological target: T1, CbAgoM
# Assay: fluorescence polarization
binder,measurement,value
B1,binding result,binds

# Reference: article PMC11023060
